For this data set, the target named is PKR dsRBD (P20) (UniProt P19525 1-184). Briefly: EMSA; 0.1 mg/mL herring sperm DNA competitor; Hill 2.9; 25 mM Hepes-KOH pH 7.5, 10 mM NaCl, 5% glycerol, 5 mM DTT, 0.1 mM EDTA, 0.1 mg/mL tRNAPhe or herring sperm DNA; room temperature 10 min; 10% native gel, 0.5x TB, 16 C. The following applies: protein: recombinant; chain copies: 2; label: 5'-32P; tRNA fold, monomer, ~20 bp.
Sequence of PKR dsRBD (P20) (P19525 1-184): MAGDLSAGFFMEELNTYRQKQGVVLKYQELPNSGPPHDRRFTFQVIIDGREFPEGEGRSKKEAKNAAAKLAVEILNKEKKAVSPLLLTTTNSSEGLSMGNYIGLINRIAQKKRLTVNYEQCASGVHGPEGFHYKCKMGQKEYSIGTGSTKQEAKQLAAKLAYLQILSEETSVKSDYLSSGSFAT

B1: T7 mt-tRNALeu WT (monomer) (structured_RNA)
RNA: UUAAGAUGGCAGAGCCCGGUAAUCGCAUAAAACUUAAAACUUUACAGUCAGAGGUUCAAUUCCUCUUCUUAACACCA
modifications: none (unmodified transcript)
The term Kd denotes the concentration at which binding is half-saturated. B1: the Kd amounted to 5.1 µM.

The record behind these values is PMC3587421, “Native Tertiary Structure and Nucleoside Modifications Suppress tRNA’s Intrinsic Ability to Activate the Innate Immune Sensor PKR”.
